# Results: US20240398911A1
# Assays:
# Test in all cases: BLI, sACE22-IgG1 immobilized, RBD-8h analyte
# [1] = target: 8his-tagged RBD of the S protein of bat coronavirus isolate LYRa11 (bat coronavirus LYRa11)
# [2] = target: 8his-tagged RBD of the S protein of bat coronavirus isolate Rs4084 (bat coronavirus Rs4084)
# [3] = target: 8his-tagged RBD of the S protein of bat coronavirus isolate Rs4231 (bat coronavirus Rs4231)
# [4] = target: 8his-tagged RBD of the S protein of bat coronavirus isolate Rs7327 (bat coronavirus Rs7327)
# [5] = target: 8his-tagged RBD of the S protein of bat coronavirus isolate RsSHC014 (bat coronavirus RsSHC014)
substance,measurement,setting,value
wild type dimeric sACE22 (a.a. S19-G732) fused to the Fc of human IgG1 (from UniProt Q9BYF1 19-732) (Fc fusion),Kd,[1],91 nM
same,koff,[1],0.079 s⁻¹
same,kon,[1],870000 M⁻¹ s⁻¹
same,Kd,[2],85 nM
same,koff,[2],0.025 s⁻¹
same,kon,[2],290000 M⁻¹ s⁻¹
same,Kd,[3],69 nM
same,koff,[3],0.022 s⁻¹
same,kon,[3],320000 M⁻¹ s⁻¹
same,Kd,[4],63 nM
same,koff,[4],0.04 s⁻¹
same,kon,[4],640000 M⁻¹ s⁻¹
same,Kd,[5],29 nM
same,koff,[5],0.026 s⁻¹
same,kon,[5],880000 M⁻¹ s⁻¹
